In the NTF2 design screens of Basanta et al. (2020):

assay: protease stability score; higher = more stable; yeast display proteolysis, trypsin and chymotrypsin;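 note: log10 excess protease needed over predicted unfolded state with 0 meaning unfolded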

Sequence	protease stability score
DEEVAKTMAEQWIKAVQKGDKEKLVKHYKPNVQWIDGDERTQGTDVVRKVMETAQKRGVEFQVRKRKVEGDQFEIVYDANVGNKTATFDIKFQVKGGKMEEMRVEVDERAKKVRKEG	0.094
DEEVANTAVKVAQTGDFQQMVEHADPNVRAVVGDKEYHGREQFQEAMTIIRERVDHYHVDKITIEGDDVRVDMQIDFNGRRVRAEVSIRASNGRIKEMHINARDEDDHRTLRKLLK	0.432
DEEVAQDVRRNVERGDWKRWAELADENARVSVGDNTYEGRNDWHKYVKDLEHQVDHFEVKHITIENGKIKVDFVLTVNGHEVRMKQVIVVTNGRISRLRIQATDTDVQRQLNEAMR	-0.066
DEEVAREMMTKWMRAVQKGDPDTVDKIYNPNGKWKAIDTERQGSEHIKKVMQRVKKQGVEFQVRKAKVEGNQAVVIYDFKLANKTVTFTVELRVQGGRVKEVRVEVDEEAKKDMKKG	1.14
DEEVEDLYQKIKRAQETGDHKQLRDNFDEEVRIKVGDKTIHGMTRAAKKITREWRHINIDVKVEHVQISNGRLRVRYRFVENDNGKPKTTAANFSMEAHNGRVKHVHVQDDS	0.112
DEEVEEQVKELKRILETGDEDRMQENADPNVRAVYGNKEIHGRDQLREEIRSLKDEMRYEVEIKDYRIRPNEADVRATWHMRVNGQPMRQEVKVKIKFHNGKLKVFVLDFDEEHEKRSRK	-0.054
DEEVEEVIHRLVKALRTNNPDQVNQQLDKDARIKVGDKEIQGRDRYKRTVEQKIQEMNFHIHIKRLEVQGDKVRITAQESSEHNGQPRQRRLKFELRVKNGRVKSAEYHVDK	0.183
DEEVEHQFRTYERALRQGDEQELRDQVDKNAEIEYGDRKIHGMDRAARKIARRVRELRVEDNFVSLEVKENHVQKNVDVVIEVNGRPVRFRADMQVQVHNGKVKEIRVQVPEEVQKRVKE	0.127
DEEVERLFKRFMSAVDEGNPDELKKQIDPNAKQHIGDKTYHGRETIASRIVKRRQKMRVTWKSISITDHNGTIKVTAHAVFNHNGRPKEVQLDIEVRAHGDQMKNFRVQVRG	0.328
DEEVFDEFIKHMETGDFRYLQRMFDPNAKASVGNKTVHGREQVQTLLEQLHSQVDHYHLKDVDNNENRMRVHFVLNVNGKNIEAENVFEVRNGRLKHLSIKFRNPEDQEDARRRLE	1.12
DEEVHKAITHYIEALHKGDPDRAANQMDENVRIEIGDKSITGREHAKHHLERLFKQMEFRITVDRVEVHNGTATAEIHWSSDRNGKPDSNTRRMTAEVHNGKIKQIVFKSDS	1.02
DEEVKDFAEKMLKNWHTGNWQHFAKLLDENAKIVIGDKRYHGTENFERMADSIQKQMSIRIESMSVEVHGEKAKFSATVVENHNGNPTRFHISAEVTVRGDKVDHFNQQNDS	1.04
DEEVKHSVDKYLQAVRQGDPDKLREMADENVTVDIGDTTYHGMSEYARRVVERQKKIRIHYDLKSLTVSGNHVKIDQEVVKHHNGKPERNRVTVIMHLNNGRIQSMSVKVDG	0.277
DEEVKRLAERILSALERGDPQQISDNFDPNARLEIGDKRIHGREELRKYVDTVRKTQRISIRSFRVSVHNGQVDIDIHFENEHNGDPDERRRSINIQASNGKAKNVVYQDNK	-0.336
DEEVKSRADEFIKALKTGDPETISRLMDPNAQVEVGDKTIHGRENIMREIHNLKHRMNLSMEINNVDVQGDTVNIDAVVRFTHNGKPSEHKVDIQVVAQGDKIDHVVFDSTK	1.22
DEEVKSVAEQLMDVLQKGDPKQMSRLADKDVKINVGDKQYDGSEQLEKAVEDWKDEMRFQIEHVSISARGDKANVDFHVEFSFNGKPHSREVKVYIKVHNGRIKYLEYRVDPNEERKIKK	-0.267
DEEVKTLVERLVEALNTGDPDSAMHLVDENAKFQYGDRELHGRENVHKFVEDMKREIRIDMEVKRLRVEPGRVKLTAEFSLSVNGQPDHQSVTMRATAHNGQLKDVQFRLPPEKLEKLKS	-0.199
DEEVKTVAEEFWKAIQTGDPDQVKTQVDENARMRVGDKSIHGSDNISTDVERERKEIKVKYNIQDIRASNGTVRVRMDVRRNHNGKPREHEQTMTQTIDNGKIQDVNISTDG	-0.46
DEEVLDDVVKVMHQNDFSRLKELFDKNATIEVGDKRYHGREEAHKLMDIIKKKVDHVRIDKVHKSGNKVRIDAILEYNGNHMKVVFVIKLHNGQAKNIHIEFTSENLQNKFKTLVD	1.02
DEEVLDFVKTMIKVEETGDEEKLKEMFDKNVKARVGDKKYHGMDHQARTIRKERESIKFKIKSITMRYKDGRVHASARVVRHENGKPDEYRETYVLQIHNGKVKTYSKQTDS	-0.188
DEEVLDTVLKALSTNNEEQFHRMADPNDRVSYGDKSIHGMVKAADVQREFRKRVDHIHIQRYDSEGDKAKVTYVAHVDGRNINITITFDVRNGTIRSINIRARNEKNQKRFEEVVG	0.245
DEEVLEEAKKRVETNDPQEFAHNVDENAEMTIGDKQYTGRDQFKHVADAWYERADKIEIKSYTTHNGKIHVNMRMRFDGRDIVFIVEFRVKNGRVQEYKFHVRDETAKTLQQQMLS	0.231
DEEVLEQVKKYIDAEKSNDPDQAVKLFDENADMQIGDKRVNGREQIKTEIERRIREMNRDVEVTHVHVDNGRATLTVRLRFTVNGKPHEDRFIIQAHATNGRINTLTVHFDEQSKRDVDK	0.741
DEEVLHLADRWWEAVDRGNERQLKDNADPNVKVRVGDKTIRGRDQMAKEVRHRREEQRVNYHHFRQDVSGDKANVTVHYTREHNGKPETNVIEVVFQAHNGKIVSITVRHDG	-0.148
DEEVLKVAHDWFENVTQGDPDKLSRLMDKDARVNVGEKQYHGREEIMRQHERENKEAEVTFQKMDFKVTGDRAVVNVRVDVNINGQPFEVTFIFKLEVHNGRIKQIEMDFSEEQWDKLRR	-0.211

Sequence	protease stability score
DEEVLQEYREAFEEGDEERIQNLADENVKVTYGDKDYHGRHDMRKFMKWLKRAADRIEIKRYTQTGDKLRIVVVMHVNGQTIKFSVVVRVHNGNVKSVRMDATSEEDRKHFERVVD	0.755
DEEVNHQMSRMWEANKRGDEHTLRELVDPNAKIDVGDKRVHGMEEYVKQVRNRREDLRWRFKIDHMSVDGDTVKFRARAVENENGRPQSYKFEQNVRVHNGKLTEQNQQDHG	0.181
DEEVQELVERIMTAFRTGNPEEVHKNLDPNAHIEVGDKRLHGMETIVHTIERKLRHARIDMKIDEMEVRNGRVEARVSFHVDVNGEPYSNSFSFQIEARNGKVKKVRVQIDPRDQRKMDS	0.877
DEEVQNLFEELVEAVKTGDEDRLRENVDPNATFEYGDKTFHGMDTFVKTVKKIRESMRLTLEVKSYEVQGDKVKAEVDAKQDHNGQPVSYTMDLHIDARNGKVKRIVRQVPEEDKTRIER	-0.032
DEEVQRQLENNWQKMREGDEEHLTRHVDENARFDVGDKRVRGMENYVKDVRREREEMHVNMTYDDMHVQGNEIRFTVRARWDVNGKPYDDNFDHKYEYHNGRLKSAHVRVDEDFERKRRK	-0.089
DEEVREVVKKMLEALKTGNSEQVRRNIDPNARLHVGEFDYHGQTQISEAVKRLSNEIKINYKDMKMRLHNGRVDVKVHQQNNSNGKPEEKTWRATIVAKNGRIKEIDQRDDK	-0.481
DEEVRHVAEEHFRAFSDNDPDRAKQLADPNARFQYGDREIHGMEDFVKHLETLKRDMRIQIHIKSMDVHNGRVDVTFNLMAHVNGQPFRIEVRATFEAHNGHLVEVQYRFDKKWQKTLES	0.861
DEEVRKAYHDAMKAEEKGDEDRIRELFDPNARVQVGDKTYQGREDISHNLAREQKHARYHIKHVDLQVHNGRLTVKQTYDFQHNGQPNSDRDKATIEADGENIKDVEVKQNP	-0.27
DEEVSEAVQRYLNALKHNNPDQVQEQMDPNARVQYGDKVLTGREDIKTFMDTKIEQMRLEIKSVSVDVHGEEVRVEADVVYTHNGQPRRNKITITARVHNGVFKSMRVETRG	-0.064
DEEVVHDLENQFRKNNWEEFARQADENAKVNIGEFEISGRSQIEEWAHRVKKQVDHIDVKHVSYDEDHLRMRVVVVVNGRKFDFEVIINVSNGEVKHMEVRFRDPSQETEWLNQIN	1.61
DEEVVKLLLELMKAWRTGDRDKAVKLMDPNVEIQVGDTYIHGREQNREEIKRIKDEIRWELSVKSYNQHNGQARIDADVTINVDGHPTHYRVDIRAEATNGEVKKITYNVPEEVLEEVKR	0.026
DEEVVRQIEDNLNAQRRNDHEKLKENMDPNATVNVGDKQIHGMSQFAQHVRDMFRHIRRSIKDFRIEVRPNHANVDVKFEVNINGKPESMSANVSVRVTNGTVQEMTIRVDPEHVKRIRR	0.816
DEEWEETMTRLVKTGDFQSLVRLAPEDVKYVVGEKRIHGREHASEFAKKLTEQIDRIQVKEMHVSGDRVRADFELEFNGRKLKAVLVVKIHGDKVREVMIEVTDEHDEDILREIDD	0.8
DEEWLHRFLQQYRSGDEDQMVRNMDKDVKIDVGDKEIHGREEAERWYRELKKRIDHFEVDHIKIQGESATADVRMNVNGRDVKFTLHVEAHNGRVKYVRLQATSSEVKTRMDRALG	0.198
DEEYAHQLREFLEAWVSGDENRAKQLADPNARVNVGEERISGMDEFMKEVRKRKKEMRIEVKHIKIEVRPNKAKADVKFRVNFNGTPFDVNQKWQAHWHNGKLHSVTVNMDEDQKRFEKG	0.451
DEEYNKKVQDIFNTNDPSQFKSLIDPNARMEVGDHVFHGRHNIVKHLKKFRDQVDHFEIKEIDVKGNKLSMEFVAVVNGKRVRATMSQQAHNGRMQEIRIKATSEEDKKILKEVTS	-0.048
DEHAARVFLELLKAAETGDEKRLKRLADPNARIQVGDKHVDGMDEATKKIVKTWEKSRIRFEIKSYDVDGEKVRVNMQMTNRDNGEPDSKNAHFTVEVRNGHIKHADLQHHG	-0.223
DEHAARVQHEIQKVQETGDEERVRELVDPNVKIQVGDKTIHGMDEYLTRVKKRMDELRFSVTWRHYDVHNGQVNVKVEFTKDHNGKPQRDVMVMKFHIHNGRVQFLSMEKDQ	0.843
DEHADTIVKKYLDAIKSNNPEDVKENVDKDVDVEVGDTSWHGRDEVVTRVQNELDEIRIDMKVDEVNNQGNHVEVKMHMTLDINGKPATVDWDVKFDIQNGRIQSIRLRPDEENRKQKEK	0.057
DEHAEDLFRQLKEAEDTGDEDHFRRLVDPNAHFEIGNKHVHGREERATQMKQQKKQIRVEIKSMDYRVDGEKVEARVDATYNFNGRPDRMHIVIDIEFHNGRVTNARYRLDEEDLKRVEK	0.308
DEHAEHIATEWWKAIRTNNPERARELVDKDVKINVGDKRIHGREQVDREIKRLNNTSRQDYKSMHMTVKGDKVRVEMNKRQEDNGNPRSKNFEVVFDFHNGRIRHISVHETK	-0.381
DEHAERIFRKWMTIYKKGDPKKVKELLDPNARVRIGDKRIRGRETAAEQQSTRADEMRNDVKVKHLEVNGDDLVVRIKFTSEENGNPKDQEAKFDWNIHNGKIRSQTQDIKG	-0.017
DEHAFKRIDEMLTAFQKNDPNKIQEYMDENVKVQYGDKSVHGRDEIAKSKQETREHLRLEIRIENYDVNGDTIHVHAKVIFNVNGDPLKFEVDIVARLHNGKIKSMQLQFSHEQQKKVES	0.682
DEHAHRQFKHYLDALKENNEEDLKKQMDKDAEAKYGNQELHGRDDAARHLKRELEEIRVDITEYRIRNQGNNIEAHVRFVVKHNGQPSKMTVLITASADENHMRTIEFDEKK	0.248
DEHAIKLLKKIYEAWEEGDPDEARENADPNARYIIGDKTLHGMENIVKEWQRRYDESRIDYKHIDVQDDNGRANADVRYVVQHNGRPERKTMTVIVEVHNGRVTQIHFQDTQ	-0.01
